Source: US20140377288A1 (University of Texas, published 2014)

Biological target: T1, GST-hEphA5 (1-72 aa) (human, UniProt P54756 304-375)
T1 construct: also called first 72 amino acids of the region 304-467 of the hEphA5 protein fused to GST; not shown: Glutathione S-transferase (GST) fusion partner
T1 sequence: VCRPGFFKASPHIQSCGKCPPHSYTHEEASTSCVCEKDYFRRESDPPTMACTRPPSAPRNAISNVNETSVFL
Test: ELISA with decreasing amount of 11C12 on GST fusion proteins
Procedure: FIG. 10: Further 11C12 epitope mapping on human EphA5. ELISA assays were performed with decreasing amount of 11C12 antibody in the presence of various portions of human EphA5 fused to GST. GST fusion proteins included EphA5 sequence from the regions corresponding to amino acids 304-467 (SEQ ID NO:3) and are numbered relative to this region. GST fusion proteins included GST-hEphA5 (1-24 aa) (SEQ ID NO:4); GST-hEphA5 (1-48 aa) (SEQ ID NO:5); GST-hEphA5 (1-72 aa) (SEQ ID NO:6); GST-hEphA5 (1-95 aa) (SEQ ID NO:7); GST-hEphA5 (1-120 aa) (SEQ ID NO:8); GST-hEphA5 (1-144 aa) (SEQ ID NO:9); and GST-hEphA5 (1-164 aa) (SEQ ID NO:10).
Epitope mapping was performed with protein fragments of human EphA5. […] This region is provided as SEQ ID NO:3. Further epitope mapping was performed by ELISA using fusion proteins including EphA5 sequences within the 304-467 region (FIG. 10).

B1: 11C12 monoclonal anti-EphA5 antibody (antibody, mouse IgG1, V domains shown)
VH: EVTLKESGGGLVQPGGSRKLSCAASGFTFSTFGIHWVRQAPEKGLEWVAYISGASTTIYYADTVKGRFTISRDNPKNTLFLQMTSLRSEDTAMYYCARYGTSFPYGLDYWGQGTSVTVSS
VL: DIVMTQSPGSLAVSLGQRATISCKASQSVDYDGDSYMNWYQQKPGQPPKLLIYGASNLESGIPARFSGSGSGTDFTLNIHPVEEEDAASYYCQQSNEDPFTFGSGTKLEIK
notes: Murine IgG1 monoclonal antibody from a hybridoma; also called monoclonal antibody 11C12; 11C12 antibody
binding result: binds
